± gives the uncertainty stated by the source.
experiment: amyloid nucleation score (Sup35N fusion, yeast selection) (log enrichment); library NNK1; higher = more nucleation; inactive = no reads after selection
Summary of the method: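 After 24 hours of induction with 100 μM copper sulfate, psi-negative yeast expressing peptides of 20 random codons fused to Sup35N were grown for 7 days at 30°C on medium lacking adenine and uracil. Input and output plasmid inserts were sequenced with Illumina, and sequences with under 100 input reads were discarded. Scores for nucleation are the DiMSum log enrichment of output over input reads, centred on the mode score of non-aggregating sequences.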

Row | Substance | amyloid nucleation score
1 | ILSIYVSDAYKSMSETN | 1.14 ± 0.42
2 | KISVSTVLSLLFGI | 1.3 ± 0.76
3 | VFNVV | -0.605 ± 0.52
4 | TGATFMMRGVNLCEGSKSGN | -0.198 ± 0.5
5 | HFFVVNQSYPNHFHLLGI | 5.05 ± 0.094
6 | GFFLVLYHCFYWISRVR | 0.737 ± 0.58
7 | LRRIKCYTFMIAGSILVVGT | inactive
8 | FKLAIVSIFCINSWYNESLR | 5.866 ± 0.049
9 | SVNAYTSRTGRWMVMNSLVS | -0.186 ± 1.9
10 | TGLDNHNICNRDTR | -0.034 ± 0.62
11 | NLGVVSIHDRHRYVAKVYSS | 0.844 ± 0.5
12 | RNLEVIYNSI | 0.229 ± 0.52
13 | NLGLR | 4.49 ± 0.077
14 | LWNIMVLDIWDRDLCSCIWG | 0.756 ± 0.56
15 | VNPFIFLNRNCAPILGWTCC | 3.11 ± 0.11
16 | SANCIWFFL | 7.105 ± 0.071
17 | CSFMCLARLVSYQIESLW | -0.062 ± 1.2
18 | NRCCVPTKATN | 0.27 ± 0.53
19 | IGSSHRNSLVCVVEDENIQI | 1.01 ± 0.5
20 | EGYVK | 1.1 ± 0.53
21 | TLIRGIIISRWRRVRNIDE | -0.216 ± 0.3
22 | QQLYINC | 0.199 ± 0.47
23 | RGSIRIKDMTCGLEIGIALR | -0.001 ± 0.44
24 | SSERYLASQPNSSPSPSIPT | -0.421 ± 1.2
25 | GACYNSGCCFNPLDWYK | 0.904 ± 0.57

Row | Substance | amyloid nucleation score
26 | QATYCGLIIPSGLIYPDYTV | -0.442 ± 0.54
27 | EQQLQRM | inactive
28 | APRAAN | -0.126 ± 0.41
29 | HGCSSVILVGMRAEEIFLYY | 2.71 ± 0.14
30 | FAWEVKTDYRWYNPWLGRAC | -0.838 ± 2.1
31 | SGFIEVYVTIRFEFLYFHTP | 0.131 ± 0.18
32 | VYFGDLLLKTSYL | -0.747 ± 1.1
33 | SRFDMLSRALRCMK | 1.35 ± 0.34
34 | SCTASMASPNLEF | inactive
35 | WISETMFSVSAMSPVTSDAF | -0.713 ± 0.4
36 | DHFKKILGLCKSGCRVVERE | 0.759 ± 0.41
37 | FWISRYVLQKDWKGWICTEL | -0.338 ± 0.83
38 | NDNLVDNQT | 0.23 ± 0.75
39 | REDWSTLEPYPHYDTAIGRS | 1.24 ± 0.8
40 | CFVVVCLFMKA | inactive
41 | VFHSMC | 0.761 ± 0.39
42 | ASSSGFSMGLCQMYNGTFMG | -1.21 ± 0.94
43 | NFVICNVMDRISWLCVCNLH | 4.08 ± 0.076
44 | IVTEVGGVVDEYARWPVGMT | 8.737 ± 0.05
45 | GPPLWADNKVVLIR | -0.878 ± 0.94
46 | WYRVR | -0.421 ± 1.1
47 | YFKFRGDDCENYWSVSGNEA | 0.111 ± 1.2
48 | KFMVNVIV | 1.24 ± 0.22
49 | ASCVKYVW | 1.31 ± 0.66
50 | LGSAAISLIVLFLG | 2.64 ± 0.27

Row | Substance | amyloid nucleation score
51 | IICKVCLCVAPM | 2.81 ± 0.19
52 | VEVATPLTGSLQLPASYIMP | inactive
53 | FLQSIEGRSETGRMSRAISV | 1.08 ± 0.93
54 | GEFTRGDTSKWFLLDK | 0.577 ± 0.56
55 | SWNMSFVWFHGCITWRQKGF | 0.408 ± 0.4
56 | CIIVNMFYWALFYFGSEMFS | 0.738 ± 0.53
57 | NLALLEYVINSVSTMFYISN | 0.276 ± 0.24
58 | IFTVTGNCTGGAHTQDVVWF | 0.381 ± 0.77
59 | LEFGSSSGAIVMRGEDPCQP | 0.649 ± 0.52
60 | QTSSFFCSV | -2.12 ± 2.4
61 | HMRDLEDPQWSDY | -0.711 ± 0.32
62 | SWAIRALKFVWIA | -0.323 ± 0.93
63 | AGYFCL | -0.449 ± 0.47
64 | NVGYTYGYRKNSADNMAFCV | inactive
65 | SNSRPGSGYSLFERTRYRNE | 0.345 ± 0.77
66 | SLDLL | -0.244 ± 0.46
67 | TNILVAYRVISNGSTTPPRR | 3.56 ± 0.15
68 | LYSIVVKYCYQYLSRACNYN | 0.637 ± 0.36
69 | ASRFDCEDIFGRTCGYVHYF | -0.113 ± 0.79
70 | SEICLLVSSKSGHDAQSTIS | -0.011 ± 1.2
71 | LYVFSEKIFCRNGFSSYISL | 0.855 ± 0.74
72 | RVCVFIN | inactive
73 | LSYLGLLP | 0.373 ± 0.62
74 | WRFMRFSSGRFNIGEYI | -0.431 ± 1.4
75 | CYLCSSSF | 1.67 ± 0.24

Row | Substance | amyloid nucleation score
76 | FITYRGSKVRAFLSR | -1.46 ± 0.9
77 | EFKWYFAISDKCYVRLKLIK | 0.751 ± 0.45
78 | SHTWKGTSCAFAMHAQRGSQ | inactive
79 | QIIHGCSAGLQLT | 0.809 ± 0.47
80 | GFTFVLLLSLGLVGWCETVK | -0.511 ± 0.68
81 | IDSKFQPK | 0.972 ± 0.84
82 | GILKCAYKT | 0.664 ± 0.66
83 | RLMTDHINSTVTSMGKGRIT | -0.026 ± 0.22
84 | KNDDTRFR | 0.358 ± 0.31
85 | RNLTDQL | 2.99 ± 0.2
86 | IFSIGW | 0.816 ± 0.45
87 | SVFWDLTSDWAKIGVKK | -1.03 ± 0.89
88 | DNGLGRRWARAKYKECRKAR | 0.141 ± 0.27
89 | SGEVLRPFAVLC | -0.061 ± 0.3
90 | VKRLTRAVFCSFKSRVARSS | 0.238 ± 0.58
91 | VRGPGDGFWLEDGTGSHSYR | -0.078 ± 0.42
92 | SYDNLRSRREGPEVVGRRAP | 0.569 ± 0.74
93 | IPRYQSGLWGCCVY | 0.489 ± 0.58
94 | IYARNIRRLTRFPDLLDLVM | 1.47 ± 0.17
95 | GRTSCLKRGISKEASLTGS | 1.25 ± 0.53
96 | DLIYTDGLV | -0.743 ± 0.24
97 | NRFFSRVKKYPYTLSYPGFC | 0.065 ± 0.29
98 | YVYLYGGSSQFVWYGLFSFA | 2.65 ± 0.14
99 | SALIAMYYHSSGTMWIQYFC | 0.145 ± 0.83
100 | WNSVVHINSVNYCV | 6.732 ± 0.059

Row | Substance | amyloid nucleation score
101 | SRWTQS | 0.201 ± 0.88
102 | QDLPAISLFTDVQSKPRTFP | 0.631 ± 0.95
103 | TLVKLVVTIGLDIKDCGFVI | 0.018 ± 0.18
104 | LHRALYLDRQLISWGTVSQM | -0.332 ± 0.42
105 | RWGAYVYGQSVSINGIRIVL | 6.665 ± 0.045
106 | VQVQVGSFELNSGQRRSVLK | -0.516 ± 1.3
107 | FNDEHKSSIG | -0.549 ± 0.58
108 | TFYLEYLVLFGDCDADSFSW | -0.361 ± 0.63
109 | HERDIQSSIGDWNKLSKPCN | -0.418 ± 0.31
110 | TTKAVRCYRNIMCSTILGRS | -0.015 ± 0.31
111 | FTGRNSNMIFLSYWVCYYQN | 6.983 ± 0.05
112 | TTNMRLFLLYNTTLVMSFNV | 1.88 ± 0.16
113 | FRHPMTDDDTPWKAARFVE | -1.6 ± 2.4
114 | FFTVSVYLHVRGVAYESAAA | 0.252 ± 0.32
115 | DGLLSIEYMNVYSSS | 0.326 ± 0.77
116 | GPLFYNTM | 0.159 ± 1.2
117 | TVTDYKTYASLLFGTKTYAI | 2.17 ± 0.47
118 | KMLSMLTDRSFWLNHWSFFQ | -0.573 ± 1.4
119 | YAAVLLNFT | 1.09 ± 0.28
120 | KEYNLLHDL | -0.691 ± 1.7
121 | IYGDGNCIIFLMGQRP | 6.38 ± 0.085
122 | FYTVSCLVCLGL | 8.507 ± 0.047
123 | FQCDVIYA | -0.72 ± 0.52
124 | YIGFVGSGYLVVCVP | -2.02 ± 0.99
125 | NGVSTVEYVMFKFSIAFAMF | 6.583 ± 0.046

Row | Substance | amyloid nucleation score
126 | TQCCGS | -0.448 ± 1.7
127 | RCSTPRCSPL | -0.237 ± 0.62
128 | TLTPTILILFNFIT | 4.68 ± 0.052
129 | LVNWYTQILICTCPGHKLRR | 8.156 ± 0.053
130 | QTLCCETRWSGENRSDAFRV | -0.596 ± 0.79
131 | VYRRIYNFECWSSKCMLGYP | -0.129 ± 1.6
132 | VASYFGLVRNSNLDLYLHCR | -0.131 ± 0.23
133 | RVDRMKNIFVRYRTVRVHGG | 9.304 ± 0.045
134 | VWRGRGCNHLYVMEEKLVGV | 0.623 ± 0.41
135 | WCLWCVQVRFFFNVLFFK | 0.95 ± 0.44
136 | MRNYNLAWRHSSYCTIRSNA | 0.51 ± 0.84
137 | HSLRQKVPM | 0.227 ± 0.3
138 | LFLCGGDCYGKFLLCPCLVS | 0.144 ± 0.9
139 | RVRAVCVLFRTNAAFPAGTH | -1.03 ± 0.74
140 | YSYFSPDFRRSQHQGGVCPA | 0.329 ± 0.53
141 | PLLQKSWIRALSFFVNHTS | 0.126 ± 0.51
142 | TVKDNHVLEEFVTFYVVYKS | -0.013 ± 0.27
143 | CFCKGGPVVTRMWEGIYPC | -0.014 ± 0.27
144 | KTGPAA | -0.17 ± 0.73
145 | IPENCSGLYWLGNYVPSIAD | -0.439 ± 0.34
146 | LRDISEH | -0.588 ± 0.53
147 | TWWCV | -0.285 ± 0.27
148 | PIDGLPGASFGLGFQCGVGM | 0.527 ± 0.76
149 | NNRIRRGGSVSVVMTVCDMD | 1.81 ± 0.34
150 | VYTWPTICNCQRL | 0.128 ± 0.36

Row | Substance | amyloid nucleation score
151 | VRSWVLVLQSMCGLLSGGYG | -0.802 ± 0.96
152 | CAVHYKLCDLYHT | 0.381 ± 0.5
153 | SGGCMDSKLSAVG | 0.894 ± 0.51
154 | PWGTCQQYRYTFWPVSAC | -0.412 ± 0.92
155 | AYNLNLYNRCQVLMLISSTR | 4.91 ± 0.048
156 | YSCGSIPYIRLVLKLIGYVI | -0.016 ± 0.39
157 | RSSLVLTFELFRFGMYHQEM | 1.28 ± 0.15
158 | ICIREPTNESLAQLSDGVIR | 2.06 ± 0.6
159 | HRRLRMRT | -0.469 ± 0.79
160 | VMGNTDVVSDVSWVKCQKLK | 0.328 ± 0.32
161 | VFTSNGNDLPISRSELRLNL | inactive
162 | RTSTQFPSHQYIQVVLCIS | inactive
163 | EAMLKFTVYTIVRSFNAKSR | 1.11 ± 0.32
164 | VCILFSAPDNMWFFSD | 1.49 ± 0.45
165 | QYVPNTLDNSPDAVGMSNIY | -0.29 ± 1.7
166 | SNSKK | 0.009 ± 0.25
167 | ILHYWVAVSMAQWICIGLKK | 0.194 ± 0.45
168 | DAILLHYSNDMLYSYYRRVG | -0.937 ± 0.65
169 | QVTTSPQ | -0.387 ± 0.56
170 | GETRGVPPNFFTPIIQLSSA | inactive
171 | SGHFILHGFYFCYKKCALIY | 1.06 ± 0.81
172 | TNSKSSSVGSKATQHN | 0.077 ± 0.35
173 | AISYDTYYTGELSSLWSGLS | 0.666 ± 0.57
174 | CHWSCRSEVMPESVTDAGGW | -0.072 ± 0.67
175 | AFFYVVCFDVCKMSTMYLFG | -2.44 ± 2.4
